From patent publication US20180072805A1

Target: recombinant human soluble Flt-1 (human) (UniProt P17948)
Assay: competition ELISA, inhibition of human sFlt-1:VEGF binding

Chain of UniProt P17948 (P17948 other isoform, or with tags, fused parts or gaps limits assumed): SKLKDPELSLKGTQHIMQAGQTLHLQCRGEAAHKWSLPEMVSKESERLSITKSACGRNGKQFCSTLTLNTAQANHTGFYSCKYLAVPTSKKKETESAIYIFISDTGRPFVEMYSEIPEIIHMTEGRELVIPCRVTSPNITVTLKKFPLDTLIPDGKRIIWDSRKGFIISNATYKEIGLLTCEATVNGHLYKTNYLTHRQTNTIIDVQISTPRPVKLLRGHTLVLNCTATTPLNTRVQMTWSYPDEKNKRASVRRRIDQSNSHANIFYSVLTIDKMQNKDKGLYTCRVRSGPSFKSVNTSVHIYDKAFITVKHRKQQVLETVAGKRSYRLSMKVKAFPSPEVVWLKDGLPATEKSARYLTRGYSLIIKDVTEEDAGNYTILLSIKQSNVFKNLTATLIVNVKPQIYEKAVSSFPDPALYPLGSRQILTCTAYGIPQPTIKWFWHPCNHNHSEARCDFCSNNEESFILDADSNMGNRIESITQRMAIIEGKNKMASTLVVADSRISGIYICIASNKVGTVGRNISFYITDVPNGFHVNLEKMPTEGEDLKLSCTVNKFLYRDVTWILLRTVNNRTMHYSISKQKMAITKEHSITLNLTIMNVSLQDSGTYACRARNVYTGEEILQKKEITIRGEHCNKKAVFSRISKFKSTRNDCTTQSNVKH

IC50 (read off the curve): 10 ng/mL
Substance: Abcam56300 (antibody)
